B1: Ras-related protein Rab-9A (Homo sapiens), P51151 (parent)
chain: MAGKSSLFKVILLGDGGVGKSSLMNRYVTNKFDTQLFHTIGVEFLNKDLEVDGHFVTMQIWDTAGQERFRSLRTPFYRGSDCCLLTFSVDDSQSFQNLSNWKKEFIYYADVKEPESFPFVILGNKIDISERQVSTEEAQAWCRDNGDYPYFETSAKDATNVAAAFEEAVRRVLATEDRSDHLIQTDTVNLHRKPKPSSSCC
partner: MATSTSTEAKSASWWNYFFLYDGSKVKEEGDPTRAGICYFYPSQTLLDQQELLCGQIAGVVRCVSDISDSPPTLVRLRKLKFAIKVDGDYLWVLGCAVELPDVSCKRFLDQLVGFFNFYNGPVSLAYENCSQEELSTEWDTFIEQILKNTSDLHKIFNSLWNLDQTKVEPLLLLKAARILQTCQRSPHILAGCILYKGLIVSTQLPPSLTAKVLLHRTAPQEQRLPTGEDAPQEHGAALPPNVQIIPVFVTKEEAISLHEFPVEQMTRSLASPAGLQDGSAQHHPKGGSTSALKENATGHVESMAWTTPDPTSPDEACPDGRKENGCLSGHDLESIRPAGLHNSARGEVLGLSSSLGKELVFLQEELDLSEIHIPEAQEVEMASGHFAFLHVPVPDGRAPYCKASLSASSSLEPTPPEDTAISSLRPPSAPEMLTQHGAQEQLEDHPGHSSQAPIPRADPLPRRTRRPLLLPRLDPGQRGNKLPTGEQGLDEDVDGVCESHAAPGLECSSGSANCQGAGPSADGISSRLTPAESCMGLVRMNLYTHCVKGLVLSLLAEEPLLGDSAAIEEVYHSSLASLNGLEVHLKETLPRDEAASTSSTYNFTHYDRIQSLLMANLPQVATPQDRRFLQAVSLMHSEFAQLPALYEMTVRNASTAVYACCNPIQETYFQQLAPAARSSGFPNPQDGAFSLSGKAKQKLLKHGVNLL

Variants of: B1
Settings: with hps4_human HPS4, Q9NQG7

Row | Variant | effect of a mutation on the interaction
1 | T34A;Q66L | with no effect
2 | I40A;Q66L | disrupting interaction strength
3 | V42A;Q66L | with no effect
4 | Q35A;Q66L | with no effect
5 | H38A;Q66L | with no effect

The remaining lines, values ahead:

Row | effect of a mutation on the interaction | Variant
6 | with no effect | Q66L
7 | disrupting interaction strength | F44A;Q66L
8 | disrupting interaction strength | W61A;Q66L
9 | with no effect | Q66L;L72A
10 | with no effect | Q66L;F76A

— IntAct's records for PubMed 20048159
